Laboratory results from paper PMC5864733.

What was measured:
Assay in all cases: SEC
[1] = molecular target: CesT-E121A (residues 1-156, E121A) (enteropathogenic E. coli (EPEC) O127:H6 E2348/69) (UniProt P21244)
[2] = molecular target: CesT-E121A/Y152A (residues 1-156, E121A + Y152A) (enteropathogenic E. coli (EPEC) O127:H6 E2348/69) (UniProt P21244)
[3] = molecular target: CesT-Y152A (residues 1-156, Y152A) (enteropathogenic E. coli (EPEC) O127:H6 E2348/69) (UniProt P21244)
[4] = molecular target: CsrA (residues 1-61), GST tag removed (enteropathogenic E. coli (EPEC) O127:H6 E2348/69) (UniProt P69913)
[5] = molecular target: CsrA tetra-mutant (residues 1-61, R31A + K38A + H43A + R44A) (enteropathogenic E. coli (EPEC) O127:H6 E2348/69) (UniProt P69913)
[6] = molecular target: CsrA-Cdel (residues 1-44) (enteropathogenic E. coli (EPEC) O127:H6 E2348/69) (UniProt P69913)

“CesT-E121A (residues 1-156, E121A) (from UniProt P21244 1-156) (natural protein)” was tested, and the stoichiometry N [1] was 2.

Substance “CesT-E121A/Y152A (residues 1-156, E121A + Y152A) (from UniProt P21244 1-156) (natural protein)” has a stoichiometry N [2] of 2.

With “CesT-Y152A (residues 1-156, Y152A) (from UniProt P21244 1-156) (natural protein)” the stoichiometry N [3] was 2.

In the case of “CsrA (residues 1-61), GST tag removed, P69913 1-61 (natural protein; other documents disagree on this pair)”, the stoichiometry N [4] is reported as 2.

For “CsrA tetra-mutant (residues 1-61, R31A + K38A + H43A + R44A) (from UniProt P69913 1-61) (natural protein)”, the stoichiometry N [5] was 2.

“CsrA-Cdel (residues 1-44) (from UniProt P69913 1-44) (domain or fragment)” showed a stoichiometry N [6] of 2.
